# Data from patent US20130209439A1, “INHIBITORS OF PDE4 BINDING TO HSP20” (THE UNIVERSITY COURT OF THE UNIVERSITY OF GLASGOW, priority 2010, published 2013).
# T1: His-HSP20 (purified recombinant His-tagged HSP20) (human, UniProt O14558 1-160)
# T1 construct: Expressed in E. coli BL21 from pET28c and purified on nickel; also called HSP20-His; HSP20-6His; not shown: His tag from the pET28c vector
# T1 sequence: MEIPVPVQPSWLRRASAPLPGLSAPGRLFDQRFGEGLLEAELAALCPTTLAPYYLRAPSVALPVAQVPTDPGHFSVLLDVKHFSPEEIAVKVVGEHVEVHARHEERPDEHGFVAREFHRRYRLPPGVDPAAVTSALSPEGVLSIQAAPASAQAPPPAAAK
# Tested on: Phospho-Ser16 HSP20 in HEKB2 cells
# Assay: Ser16 phosphorylation of HSP20 in HEKB2 cells overexpressing HSP20 (Western blot)
# Type: cell-based
# Conditions: HEKB2 cells, stimulated with isoproterenol alone; data not shown
# Procedure: FIG. 1. The phosphorylation of HSP20 at Ser16 is modulated by PDE4 activity in HEKB2 cells. A, HEKB2 cells overexpressing HSP20 or HSP20 ser16-Ala mutant were treated with isoprenaline for indicated times. Cellular lysates were blotted for HSP20 and Phospho-Ser16 HSP20. B, HEKB2 cells overexpressing HSP20 were treated with isoprenaline for indicated times, Cellular lysates were blotted for HSP20 and Phospho-Ser16 HSP20. C, HEKB2 cells overexpressing HSP20 were treated with isoprenaline for indicated times following pre-treatment with the PDE4-specific inhibitor, rolipram. Cellular lysates were blotted for HSP20 and Phospho-Ser16 HSP20. D, Quantifications of data from FIGS. 1B and 1C (n=4). * Denotes significance at a level p<0.05 E, Lysate from untransfected HEKB2 cells was blotted for HSP20 and Phospho-Ser16 HSP20.
# (§1) HEK293B2 cells are a stable cell line overexpressing the GFP-tagged β2AR were cultured as previously described^48. HEK293B2 cells were transiently transfected with wild type HSP20 or a phosphorylation defective HSP20 (S16A) or a phosphorylation mimic HSP20 (S16D). Neonatal cardiac myocytes were prepared and cultured as previously described^30. Cell lysis, immunopurification and western blotting was done as described before by us in some detail^48. Briefly, HEK 293 cells were transiently transfected with wild-type HSP20 by using Polyfect Transfection Reagent (Qiagen). Transfected HEK 293 cells were treated with 10 μM bs906 or 10 μM control peptide for 0, 15, 30, 60 and 120 min. Control and treated transfected HEK 293 cells were then washed thrice with ice cold PBS (phosphate buffered saline) before cellular lysates were prepared. Cellular lysates were prepared in lysis buffer containing 25 mM Hepes, pH 7.5, 2.5 mM EDTA, 50 mM NaCl, 50 mM NaF, […], 10% (v/v) glycerol, 1% (v/v) Triton X-100 and Complete™ EDTA-free protease inhibitor cocktail tablets (Roche). Protein concentration of lysates were determined using the Bradford assay and all samples were equalised for protein concentration. Proteins were separated by SOS/PAGE (4-12% Bis-Tris gels) and transferred onto nitrocellulose membranes for Western blotting. Antibodies were used to detect phospho-proteins and native proteins in lysates from control and treated cells
# In contrast to this, when we transfected these cells with a phospho-null mutant form, Ser16Ala-Hsp20, then no such change was observed (FIG. 1A). In order to evaluate whether PDE4 activity played a role in regulating this phosphorylation process in Hsp20-transfected HEKB2 cells, cells that had either been pre-treated or not with the PDE4 selective inhibitor rolipram were subsequently challenged with isoprenaline (1 μM) (FIGS. 1B and C). […] Endogenous levels of phospho-HSP20 or HSP20 were not detectable in HEKB2 cells (FIG. 1E).
row,Molecule,HSP20 phosphorylation after PKA inhibitor pre-treatment
1,CCCCCCOC(=O)[C@]1(O)C[C@@H]2O[C@@]1(C)n1c3ccccc3c3c4c(c5c6ccccc6n2c5c31)C(=O)NC4 [KT5720],markedly attenuated HSP20 phosphorylation
2,"O=S(=O)(NCCNC/C=C/c1ccc(Br)cc1)c1cccc2cnccc12 [Peptide H89, H89]",markedly attenuated HSP20 phosphorylation

# Tested on: Phospho-Ser16 HSP20 in neonatal cardiac myocytes
# Assay: Ser16 phosphorylation of endogenous HSP20 in neonatal cardiac myocytes (Western blot)
# Type: cell-based, rat
# Conditions: cardiomyocytes, stimulated with isoproterenol alone or with PKA inhibitor pre-treatment; data not shown
# Procedure: FIG. 2. The phosphorylation of HSP20 at Ser16 is modulated by PDE4 activity in cardiac myocytes. A, Neonatal cardiac myocytes were treated with isoprenaline for indicated times with or without pre-treatment with the PDE4-specific inhibitor, rolipram. Cellular lysates were blotted for HSP20 and Phospho-Ser16 HSP20. B, Quantifications of data from FIG. 2A (n=3). * Denotes significance at a level p<0.05 over iso treatment.
# as §1
# To determine whether inhibition of PDE4 activity had similar effects on endogenous phospho-HSP20 levels in heart cells, similar experiments were undertaken using neonatal cardiomyocytes (FIG. 2).
row,Molecule,HSP20 phosphorylation after PKA inhibitor pre-treatment
1,CCCCCCOC(=O)[C@]1(O)C[C@@H]2O[C@@]1(C)n1c3ccccc3c3c4c(c5c6ccccc6n2c5c31)C(=O)NC4 [KT5720],markedly attenuated HSP20 phosphorylation
2,"O=S(=O)(NCCNC/C=C/c1ccc(Br)cc1)c1cccc2cnccc12 [Peptide H89, H89]",markedly attenuated HSP20 phosphorylation

# Tested on: pS16-Hsp20 in SH-SY5Y cells
# Assay: Cell based Hsp20-PDE4D disruptor assay, nucleofected SH-SY5Y cells, pS16-Hsp20 Western blot
# Design: species or system human
# Conditions: SH-SY5Y cells nucleofected with 500 μM peptide, 2 hours
# Procedure: FIG. 9. Disrupter induced HSP20 phosphorylation SH-SY5Y cells nucleofected with 500 μM of each peptide and incubated for 2 hours prior to harvesting. Each assay was blotted for Hsp20, pS16-Hsp20 and tubulin. Changes in levels of phospho-Hsp20 relative to DMSO only controls were quantified through densitometry analysis and each assay was normalised to α-tubulin loading control. The results are the average of three separate experiments and error bars represent SEM. *=p<0.05, **=p<0.01 compared to DMSO only controls (Student-T-test)
# SDS-PAGE analysis was done on NuPage® pre-cast gels X-cell apparatus (Invitrogen, Paisley) using MES-SDS running buffer, Samples were reduced in Laemmli 2× loading buffer (4% SOS) with 5% β-mercaptoethanol. For Western Blotting (WB) analysis, samples were transferred using NuPage® X-cell blotting module onto a nitrocellulose membrane. Membranes were blocked using 5% Milk in 1×TBST (w/v). Antibodies were incubated in 1% milk in 1×TBST (w/v) for either 1 hour at room temperature or overnight at 4° C. Signals were detected using enhanced chemiluminescence system (Pierce) and developed on an X-omat film developer. Subsequent densitometry analysis was carried out using Quantity One (Bio-Rad).
# SH-SY5Y cells (ATCC-CRL-2266) were grown in Dulbecco's Modified Eagle's Medium (DMEM) and F12-Ham's at a 1:1 ratio, media was supplemented with 10% (v/v) fetal bovine serum (FBS), 1% (v/v) L-Glutamine, 1% (v/v) Minimum Essential Medium—With Non-essential Amino Acids (MEM-NAA) and 1% (v/v) Pen/strep. Cells were cultured in a humidified, 5% (v/v) CO2, 37° C. incubator.
# SH-SY5Y cells were nucleofected using Cell Line Nucleofector® Kit-V in accordance with manufacturers protocol (Amaxa Biosystems). Setting A-23 on the Nucleofector I device was used which increases cell viability. For each assay, 500 μM of disrupter peptide was incubated with 100 μl of nucleofection solution containing approximately 2×10^6 cells. After nucleofection cells were re-suspended in 500 μl of culture media before being transferred to a 6 well plate with a final volume of 2 ml per well. Cells were incubated for 2 hours prior to harvesting with […] containing protease and phosphatase inhibitors (Roche).
# As the cell permeability of the peptides is unknown we used an electroporation technique to introduce the peptides into the SH-SY5Y cells. The Amaxa cell-line specific Nucleofector Kit V (Lonza) was used to transfect the peptides into the cells. […] Each assay used a final concentration of 500 μM of peptide in nucleofector solution containing approximately 2×10^6 SH-SY5Y cells. As peptides were dissolved in 100% DMSO, control transfections with DMSO only were used to compare any changes in phospho-Hsp20 levels. After each transfection the solution was reconstituted in culture media and incubated for 2 hours to allow for cell adhesion prior to the harvesting of viable cells.
row,Molecule,pS16-Hsp20 levels relative to DMSO only controls
1,Ac-GFRLL-NH2 [Peptide 12],induced an average increase when compared with DMSO only controls
2,Ac-LTK-NH2 (Ac-Leu-Thr-Lys-NH2) [Peptide 7],significant increase in pS16-Hsp20 levels
3,Ac-YQNLTK-NH2 [Peptide 3],no effect on phosphorylation levels
4,Ac-FKLLQ-NH2 [Peptide 9],indistinguishable from DMSO only controls
5,Ac-GFALL-NH2 [Peptide 16],average value similar to the DMSO only controls
6,Ac-GFKLL-NH2 [Peptide 11],indistinguishable from DMSO only controls
7,Ac-KFKLL-NH2 [Peptide 13],induced an average increase when compared with DMSO only controls
8,Ac-FQNLTK-NH2 [Peptide 6],significant increase in pS16-Hsp20 levels

# Target: T1, His-HSP20 (purified recombinant …)
# Assay: PDE4D5 peptide array overlaid with HSP20-6His
# Conditions: not given
# Description: PDE4 isoform localisation invariably depends on protein-protein interactions, with PDE4s shown to associate with a diverse group of interacting partners such as RACK1^{32, 36}, βarrestin³⁶, β₁-Ar³⁷, DISC1³⁸, the p75 neurotrophin receptor³⁹ and the cardiac IKs potassium channel⁴⁰. […] Dark spots represent positive areas of HSP20 interaction whereas clear spots are negative for the association (FIG. 4A).
row,Molecule,binding result
1,FKLLQEENCDIFQNLTKKQRQSLRK (peptides 93 to 96 span Y461-K500; SPOT-immobilised; also called spot 96) [25mer peptide 96 of the PDE4D5 peptide array],binds
2,HLAVGFKLLQEENCDIFQNLTKKQR (peptides 93 to 96 span Y461-K500; SPOT-immobilised; also called spot 95) [25mer peptide 95 of the PDE4D5 peptide array],binds
3,YNDSSVLENHHLAVGFKLLQEENCD (peptides 93 to 96 span Y461-K500; SPOT-immobilised; also called spot 93) [25mer peptide 93 of the PDE4D5 peptide array],binds
4,VLENHHLAVGFKLLQEENCDIFQNL (peptides 93 to 96 span Y461-K500; SPOT-immobilised; also called spot 94) [25mer peptide 94 of the PDE4D5 peptide array],binds

# Target: T1, His-HSP20 (purified recombinant …)
# Assay: SPOT peptide array overlaid with purified His-Hsp20
# Conditions: not given
# Procedure: A variety of peptides were generated and SPOT-synthesised onto slides which were then overlaid with 10 μg/ml of purified His-Hsp20. Interaction with peptides and Hsp20 was evaluated by probing slides with anti-His or Hsp20 antibodies and analysed using enhanced chemi-luminescence techniques, Negative controls used anti-His antibody only with no overlay of His-Hsp20 protein (data not shown).
row,Molecule,binding result
1,Ac-GFKLL-NH2 (On the array SPOT-synthesised on a slide; also called peptide No 11) [Ac-GFKLL-NH2],binds
2,Ac-RFKLL-NH2 (On the array SPOT-synthesised on a slide; also called peptide No 14) [Ac-RFKLL-NH2],binds
3,Ac-GFRLL-NH2 (On the array SPOT-synthesised on a slide; also called peptide No 12) [Ac-GFRLL-NH2],binds
4,Ac-KFKLL-NH2 (On the array SPOT-synthesised on a slide; also called peptide No 13) [Ac-KFKLL-NH2],binds
5,Ac-GFALL-NH2 (Negative control; On the array SPOT-synthesised on a slide; also called peptide No 16) [Ac-GFALL-NH2],no binding (tested: 10 ug/ml His-Hsp20 overlay)
6,Ac-FKLLQ-NH2 (On the array SPOT-synthesised on a slide; also called peptide No 9) [Ac-FKLLQ-NH2],binds
7,Ac-FQNLTK-NH2 (On the array SPOT-synthesised on a slide; also called peptide No 6) [Ac-FQNLTK-NH2],binds
8,Ac-FQNLTA-NH2 (Negative control; On the array SPOT-synthesised on a slide; also called peptide No 4) [Ac-FQNLTA-NH2],no binding (tested: 10 ug/ml His-Hsp20 overlay)
9,Ac-YQNLTK-NH2 (On the array the peptide was SPOT-synthesised on a slide; the soluble form Ac-...-NH2 was made 'to resemble SPOT synthesised peptides'; also called peptide No 3) [Ac-YQNLTK-NH2],binds
10,Ac-FQNLTR-NH2 (On the array SPOT-synthesised on a slide; also called peptide No 5) [Ac-FQNLTR-NH2],binds
